Patent US20050202000
“And” between values parts separate entries of the source, which are not always exact repeats. Equal values may be shown once.

T1: plasminogen, P00747
T1 chain: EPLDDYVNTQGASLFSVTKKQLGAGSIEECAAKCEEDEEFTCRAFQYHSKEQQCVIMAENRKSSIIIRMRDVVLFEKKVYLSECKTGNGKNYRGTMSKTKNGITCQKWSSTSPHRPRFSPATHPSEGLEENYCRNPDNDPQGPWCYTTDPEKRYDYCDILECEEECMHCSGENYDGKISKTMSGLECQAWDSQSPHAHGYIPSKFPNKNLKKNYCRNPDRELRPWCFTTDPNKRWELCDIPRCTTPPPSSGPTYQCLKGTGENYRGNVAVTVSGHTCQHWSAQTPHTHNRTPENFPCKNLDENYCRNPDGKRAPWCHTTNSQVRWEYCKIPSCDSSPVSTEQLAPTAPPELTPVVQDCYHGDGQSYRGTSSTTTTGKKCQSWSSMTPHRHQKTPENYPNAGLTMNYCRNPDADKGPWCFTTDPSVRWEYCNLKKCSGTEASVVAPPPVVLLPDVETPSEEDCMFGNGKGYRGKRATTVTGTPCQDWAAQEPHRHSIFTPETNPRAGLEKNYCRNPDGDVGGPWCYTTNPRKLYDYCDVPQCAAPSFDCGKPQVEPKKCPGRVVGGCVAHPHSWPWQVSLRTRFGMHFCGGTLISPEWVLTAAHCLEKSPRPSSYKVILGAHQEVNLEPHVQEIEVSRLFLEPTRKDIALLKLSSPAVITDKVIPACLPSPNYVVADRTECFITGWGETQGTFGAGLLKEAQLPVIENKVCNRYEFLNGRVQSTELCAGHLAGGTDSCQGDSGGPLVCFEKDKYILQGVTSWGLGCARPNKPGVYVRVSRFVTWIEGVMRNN


Target: T1, plasminogen, P00747

Protein | Kcat | Kcat/Km | Km
KGD-Sak · plasmin complex (protein) chain 1: SSSFDKGKYKKGDDASYFEPTGPTLMVNVTGVDGKRNELLSPRYVEFPIKPGTTLTKEKIEYYVEWALDATAYKEFRVVELDPSAKIEVTYYDKNKKKEETKSFPITEKGDVVPDLSEHIKNPGFNLITKVVIEKK chain 2: KVYLSECKTGNGKNYRGTMSKTKNGITCQKWSSTSPHRPRFSPATHPSEGLEENYCRNPDNDPQGPWCYTTDPEKRYDYCDILECEEECMHCSGENYDGKISKTMSGLECQAWDSQSPHAHGYIPSKFPNKNLKKNYCRNPDRELRPWCFTTDPNKRWELCDIPRCTTPPPSSGPTYQCLKGTGENYRGNVAVTVSGHTCQHWSAQTPHTHNRTPENFPCKNLDENYCRNPDGKRAPWCHTTNSQVRWEYCKIPSCDSSPVSTEQLAPTAPPELTPVVQDCYHGDGQSYRGTSSTTTTGKKCQSWSSMTPHRHQKTPENYPNAGLTMNYCRNPDADKGPWCFTTDPSVRWEYCNLKKCSGTEASVVAPPPVVLLPDVETPSEEDCMFGNGKGYRGKRATTVTGTPCQDWAAQEPHRHSIFTPETNPRAGLEKNYCRNPDGDVGGPWCYTTNPRKLYDYCDVPQCAAPSFDCGKPQVEPKKCPGRVVGGCVAHPHSWPWQVSLRTRFGMHFCGGTLISPEWVLTAAHCLEKSPRPSSYKVILGAHQEVNLEPHVQEIEVSRLFLEPTRKDIALLKLSSPAVITDKVIPACLPSPNYVVADRTECFITGWGETQGTFGAGLLKEAQLPVIENKVCNRYEFLNGRVQSTELCAGHLAGGTDSCQGDSGGPLVCFEKDKYILQGVTSWGLGCARPNKPGVYVRVSRFVTWIEGVMRNN | 1.46 s⁻¹ | 0.1 | 14.1 µmol/L
Sak · plasmin complex (protein) chain 1: SSSFDKGKYKKGDDASYFEPTGPYLMVNVTGVDGKGNELLSPHYVEFPIKPGTTLTKEKIEYYVEWALDATAYKEFRVVELDPSAKIEVTYYDKNKKKEETKSFPITEKGFVVPDLSEHIKNPGFNLITKVVIEKK chain 2: KVYLSECKTGNGKNYRGTMSKTKNGITCQKWSSTSPHRPRFSPATHPSEGLEENYCRNPDNDPQGPWCYTTDPEKRYDYCDILECEEECMHCSGENYDGKISKTMSGLECQAWDSQSPHAHGYIPSKFPNKNLKKNYCRNPDRELRPWCFTTDPNKRWELCDIPRCTTPPPSSGPTYQCLKGTGENYRGNVAVTVSGHTCQHWSAQTPHTHNRTPENFPCKNLDENYCRNPDGKRAPWCHTTNSQVRWEYCKIPSCDSSPVSTEQLAPTAPPELTPVVQDCYHGDGQSYRGTSSTTTTGKKCQSWSSMTPHRHQKTPENYPNAGLTMNYCRNPDADKGPWCFTTDPSVRWEYCNLKKCSGTEASVVAPPPVVLLPDVETPSEEDCMFGNGKGYRGKRATTVTGTPCQDWAAQEPHRHSIFTPETNPRAGLEKNYCRNPDGDVGGPWCYTTNPRKLYDYCDVPQCAAPSFDCGKPQVEPKKCPGRVVGGCVAHPHSWPWQVSLRTRFGMHFCGGTLISPEWVLTAAHCLEKSPRPSSYKVILGAHQEVNLEPHVQEIEVSRLFLEPTRKDIALLKLSSPAVITDKVIPACLPSPNYVVADRTECFITGWGETQGTFGAGLLKEAQLPVIENKVCNRYEFLNGRVQSTELCAGHLAGGTDSCQGDSGGPLVCFEKDKYILQGVTSWGLGCARPNKPGVYVRVSRFVTWIEGVMRNN | 1.03 s⁻¹ and 1.06 s⁻¹ | 0.16 | 6.42 µmol/L and 6.51 µmol/L
RGD-Sak · plasmin complex (protein) chain 1: SSSFDKGKYKKGDDASYFEPTGPTLMVNVTGVDGKRNELLSPRYVEFPIKPGTTLTKEKIEYYVEWALDATAYKEFRVVELDPSAKIEVTYYDKNKKKEETKSFPITERGDVVPDLSEHIKNPGFNLITKVVIEKK chain 2: KVYLSECKTGNGKNYRGTMSKTKNGITCQKWSSTSPHRPRFSPATHPSEGLEENYCRNPDNDPQGPWCYTTDPEKRYDYCDILECEEECMHCSGENYDGKISKTMSGLECQAWDSQSPHAHGYIPSKFPNKNLKKNYCRNPDRELRPWCFTTDPNKRWELCDIPRCTTPPPSSGPTYQCLKGTGENYRGNVAVTVSGHTCQHWSAQTPHTHNRTPENFPCKNLDENYCRNPDGKRAPWCHTTNSQVRWEYCKIPSCDSSPVSTEQLAPTAPPELTPVVQDCYHGDGQSYRGTSSTTTTGKKCQSWSSMTPHRHQKTPENYPNAGLTMNYCRNPDADKGPWCFTTDPSVRWEYCNLKKCSGTEASVVAPPPVVLLPDVETPSEEDCMFGNGKGYRGKRATTVTGTPCQDWAAQEPHRHSIFTPETNPRAGLEKNYCRNPDGDVGGPWCYTTNPRKLYDYCDVPQCAAPSFDCGKPQVEPKKCPGRVVGGCVAHPHSWPWQVSLRTRFGMHFCGGTLISPEWVLTAAHCLEKSPRPSSYKVILGAHQEVNLEPHVQEIEVSRLFLEPTRKDIALLKLSSPAVITDKVIPACLPSPNYVVADRTECFITGWGETQGTFGAGLLKEAQLPVIENKVCNRYEFLNGRVQSTELCAGHLAGGTDSCQGDSGGPLVCFEKDKYILQGVTSWGLGCARPNKPGVYVRVSRFVTWIEGVMRNN | 1.41 s⁻¹ | 0.11 | 12.5 µmol/L
